From the supplement of paper PMC9112550, “Optimization of the antimicrobial peptide Bac7 by deep mutational scanning” (BMC Biology, 2022)

test system: Escherichia coli TOP10; assay: shrunken log2 fold change of peptide-encoding DNA abundance (4.5 h post-induction vs induction); higher = less antimicrobial activity (less host growth inhibition); conditions: time post-induction: 4.5 h; library: site-saturation at positions 5, 18, 19, 20
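Note: peptides expressed intracellularly from a pBAD plasmid library in pooled LB shake-flask culture, induced with 0.3% L-arabinose, DNA abundance read by NGS, three biological replicates, DESeq2 with apeglm shrinkage.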

Row | Sequence | shrunken log2 fold change
1 | RRIRLRPPRLPRPRPRPTYDPRP | 0.0466
2 | RRIRNRPPRLPRPRPRPMIIPRP | 0.0546
3 | RRIRDRPPRLPRPRPRPYPCPRP | -0.112
4 | RRIRYRPPRLPRPRPRPPMDPRP | -0.582
5 | RRIRSRPPRLPRPRPRPGYCPRP | -0.119
6 | RRIRPRPPRLPRPRPRPLQLPRP | -0.0598
7 | RRIRERPPRLPRPRPRPDKHPRP | 0.236
8 | RRIRKRPPRLPRPRPRPVVDPRP | -0.0213
9 | RRIRKRPPRLPRPRPRPHPHPRP | 2.25
10 | RRIRGRPPRLPRPRPRPRNLPRP | -0.0805
11 | RRIRFRPPRLPRPRPRPPHHPRP | -0.0595
12 | RRIRIRPPRLPRPRPRPMINPRP | -0.714
13 | RRIRTRPPRLPRPRPRPPFKPRP | 0.332
14 | RRIRKRPPRLPRPRPRPDTRPRP | 0.0202
15 | RRIRDRPPRLPRPRPRPDQWPRP | 0.396
16 | RRIRDRPPRLPRPRPRPPKGPRP | 0.644
17 | RRIRWRPPRLPRPRPRPMRPPRP | 1.15
18 | RRIRERPPRLPRPRPRPYEIPRP | 0.0169
19 | RRIRSRPPRLPRPRPRPPLYPRP | -0.0605
20 | RRIRPRPPRLPRPRPRPKHQPRP | 0.0315
21 | RRIRFRPPRLPRPRPRPYSIPRP | -0.186
22 | RRIRHRPPRLPRPRPRPWTWPRP | -0.00897
23 | RRIRTRPPRLPRPRPRPNFPPRP | -0.00778
24 | RRIRMRPPRLPRPRPRPCIQPRP | -0.214
25 | RRIRCRPPRLPRPRPRPRNFPRP | -0.0465

Row | Sequence | shrunken log2 fold change
26 | RRIRFRPPRLPRPRPRPQIKPRP | -0.291
27 | RRIRWRPPRLPRPRPRPGYHPRP | -0.263
28 | RRIRMRPPRLPRPRPRPVQFPRP | 0.276
29 | RRIRNRPPRLPRPRPRPNKRPRP | -0.221
30 | RRIRPRPPRLPRPRPRPHRNPRP | -0.11
31 | RRIRPRPPRLPRPRPRPCPQPRP | -0.0291
32 | RRIRCRPPRLPRPRPRPFISPRP | -0.689
33 | RRIRPRPPRLPRPRPRPGRLPRP | -0.0937
34 | RRIRARPPRLPRPRPRPTTNPRP | 0.389
35 | RRIRNRPPRLPRPRPRPEGMPRP | 0.225
36 | RRIRARPPRLPRPRPRPGDYPRP | 0.226
37 | RRIRARPPRLPRPRPRPDKPPRP | 0.865
38 | RRIRFRPPRLPRPRPRPMTQPRP | -0.421
39 | RRIRIRPPRLPRPRPRPSCGPRP | -0.174
40 | RRIRYRPPRLPRPRPRPFAGPRP | 4.12
41 | RRIRFRPPRLPRPRPRPDMTPRP | -0.0215
42 | RRIRMRPPRLPRPRPRPTVLPRP | 0.477
43 | RRIRERPPRLPRPRPRPGRIPRP | -0.0858
44 | RRIRVRPPRLPRPRPRPPQRPRP | 0.374
45 | RRIRSRPPRLPRPRPRPGNGPRP | -0.0508
46 | RRIRSRPPRLPRPRPRPMEKPRP | -0.0205
47 | RRIRIRPPRLPRPRPRPACKPRP | -0.659
48 | RRIRNRPPRLPRPRPRPESHPRP | -0.0363
49 | RRIRVRPPRLPRPRPRPHMHPRP | -0.517
50 | RRIRQRPPRLPRPRPRPDYYPRP | -0.0251

Row | Sequence | shrunken log2 fold change
51 | RRIRIRPPRLPRPRPRPEQDPRP | 0.0197
52 | RRIRNRPPRLPRPRPRPLKFPRP | -0.212
53 | RRIRYRPPRLPRPRPRPEFGPRP | 0.113
54 | RRIRWRPPRLPRPRPRPTPGPRP | 0.572
55 | RRIRSRPPRLPRPRPRPKPIPRP | 0.271
56 | RRIRYRPPRLPRPRPRPCEPPRP | 0.0986
57 | RRIRVRPPRLPRPRPRPLAKPRP | -0.252
58 | RRIRLRPPRLPRPRPRPVMHPRP | -0.16
59 | RRIRTRPPRLPRPRPRPADIPRP | -0.0781
60 | RRIRQRPPRLPRPRPRPTWEPRP | 0.0645
61 | RRIRARPPRLPRPRPRPESVPRP | 0.886
62 | RRIRCRPPRLPRPRPRPRCKPRP | -0.206
63 | RRIRKRPPRLPRPRPRPGGVPRP | 0.656
64 | RRIRSRPPRLPRPRPRPGSVPRP | -0.0129
65 | RRIRLRPPRLPRPRPRPTHDPRP | 0.324
66 | RRIRWRPPRLPRPRPRPWNGPRP | 0.0206
67 | RRIRKRPPRLPRPRPRPIIMPRP | -0.419
68 | RRIRFRPPRLPRPRPRPQPGPRP | 0.152
69 | RRIRHRPPRLPRPRPRPTNVPRP | -0.558
70 | RRIRKRPPRLPRPRPRPDNIPRP | -0.0306
71 | RRIRDRPPRLPRPRPRPDRWPRP | 0.366
72 | RRIRIRPPRLPRPRPRPFHGPRP | -0.146
73 | RRIRRRPPRLPRPRPRPPGGPRP | 0.348
74 | RRIRYRPPRLPRPRPRPPYAPRP | -0.265
75 | RRIRCRPPRLPRPRPRPSITPRP | -0.641

Row | Sequence | shrunken log2 fold change
76 | RRIRYRPPRLPRPRPRPLDCPRP | -0.068
77 | RRIRGRPPRLPRPRPRPCIHPRP | 0.00637
78 | RRIRQRPPRLPRPRPRPMSAPRP | -0.107
79 | RRIRIRPPRLPRPRPRPWSLPRP | -0.449
80 | RRIRWRPPRLPRPRPRPCIYPRP | -0.162
81 | RRIRDRPPRLPRPRPRPNMCPRP | -0.0431
82 | RRIRIRPPRLPRPRPRPMTNPRP | -0.108
83 | RRIRNRPPRLPRPRPRPQPYPRP | -0.0389
84 | RRIRQRPPRLPRPRPRPENYPRP | 0.309
85 | RRIRLRPPRLPRPRPRPMDNPRP | -1.1
86 | RRIRFRPPRLPRPRPRPFDMPRP | -0.294
87 | RRIRNRPPRLPRPRPRPSEPPRP | -0.0146
88 | RRIRERPPRLPRPRPRPNVVPRP | 0.0366
89 | RRIRLRPPRLPRPRPRPASGPRP | 0.373
90 | RRIRHRPPRLPRPRPRPKLQPRP | 0.0439
91 | RRIRNRPPRLPRPRPRPCPFPRP | -0.208
92 | RRIRDRPPRLPRPRPRPMTLPRP | 0.0841
93 | RRIRIRPPRLPRPRPRPKGHPRP | 0.0764
94 | RRIRTRPPRLPRPRPRPRDNPRP | -0.239
95 | RRIRARPPRLPRPRPRPDMYPRP | -0.0823
96 | RRIRDRPPRLPRPRPRPGHKPRP | 0.00794
97 | RRIRDRPPRLPRPRPRPQHMPRP | -0.11
98 | RRIRARPPRLPRPRPRPHEWPRP | 0.311
99 | RRIRSRPPRLPRPRPRPTPLPRP | 0.159
100 | RRIRDRPPRLPRPRPRPSWHPRP | -0.0852

Row | Sequence | shrunken log2 fold change
101 | RRIRYRPPRLPRPRPRPKDGPRP | -0.613
102 | RRIRCRPPRLPRPRPRPHFLPRP | -0.657
103 | RRIRPRPPRLPRPRPRPPWNPRP | 0.77
104 | RRIRIRPPRLPRPRPRPYGEPRP | -0.148
105 | RRIRFRPPRLPRPRPRPMAVPRP | -0.0113
106 | RRIRQRPPRLPRPRPRPLHVPRP | -0.324
107 | RRIRKRPPRLPRPRPRPQMPPRP | 0.0482
108 | RRIRCRPPRLPRPRPRPAQTPRP | 0.0194
109 | RRIRVRPPRLPRPRPRPKAVPRP | 0.0112
110 | RRIRLRPPRLPRPRPRPYATPRP | -0.246
111 | RRIRDRPPRLPRPRPRPNTKPRP | -0.124
112 | RRIRKRPPRLPRPRPRPRMPPRP | 0.363
113 | RRIRGRPPRLPRPRPRPNAIPRP | 0.668
114 | RRIRRRPPRLPRPRPRPLTDPRP | 0.223
115 | RRIRPRPPRLPRPRPRPATIPRP | -0.118
116 | RRIRKRPPRLPRPRPRPVTSPRP | 0.0678
117 | RRIRARPPRLPRPRPRPMKMPRP | 0.0994
118 | RRIRMRPPRLPRPRPRPTPEPRP | 0.713
119 | RRIRTRPPRLPRPRPRPFWIPRP | -0.34
120 | RRIRYRPPRLPRPRPRPDNWPRP | -0.38
121 | RRIRPRPPRLPRPRPRPPMPPRP | 0.442
122 | RRIRMRPPRLPRPRPRPHWWPRP | 0.325
123 | RRIRPRPPRLPRPRPRPKQLPRP | 0.0245
124 | RRIRCRPPRLPRPRPRPGITPRP | -0.232
125 | RRIRSRPPRLPRPRPRPMGLPRP | 0.101

Row | Sequence | shrunken log2 fold change
126 | RRIRFRPPRLPRPRPRPIGMPRP | -0.0266
127 | RRIRIRPPRLPRPRPRPWDMPRP | -0.00715
128 | RRIRQRPPRLPRPRPRPEQTPRP | 0.0148
129 | RRIRTRPPRLPRPRPRPPIQPRP | 0.0675
130 | RRIRNRPPRLPRPRPRPCEAPRP | -0.18
131 | RRIRQRPPRLPRPRPRPHINPRP | -0.921
132 | RRIRMRPPRLPRPRPRPWYPPRP | -0.786
133 | RRIRYRPPRLPRPRPRPNCIPRP | -0.197
134 | RRIRDRPPRLPRPRPRPSLVPRP | -0.0908
135 | RRIRGRPPRLPRPRPRPHRDPRP | 0.0592
136 | RRIRSRPPRLPRPRPRPPRVPRP | 0.142
137 | RRIRARPPRLPRPRPRPLASPRP | 0.841
138 | RRIRKRPPRLPRPRPRPCDSPRP | -0.212
139 | RRIRERPPRLPRPRPRPSLKPRP | -0.217
140 | RRIRYRPPRLPRPRPRPDKNPRP | -0.558
141 | RRIRYRPPRLPRPRPRPDRVPRP | -0.234
142 | RRIRKRPPRLPRPRPRPTFVPRP | 0.362
143 | RRIRPRPPRLPRPRPRPVVNPRP | -0.229
144 | RRIRWRPPRLPRPRPRPVLWPRP | 0.809
145 | RRIRRRPPRLPRPRPRPQAWPRP | 0.0536
146 | RRIRSRPPRLPRPRPRPAQKPRP | 0.33
147 | RRIRTRPPRLPRPRPRPFITPRP | -0.689
148 | RRIRKRPPRLPRPRPRPILHPRP | -0.394
149 | RRIRTRPPRLPRPRPRPSLYPRP | -0.522
150 | RRIRTRPPRLPRPRPRPCRTPRP | -0.0391
